Assay results taken from patent US20130115677.

Key:
Test in all cases: cleavage_in_vitro
[1] = tested on: T1, BsmBI-HF N185Y/R232A (Bacillus stearothermophilus); details: NEB4, 55 C, Mg2+
T1 sequence: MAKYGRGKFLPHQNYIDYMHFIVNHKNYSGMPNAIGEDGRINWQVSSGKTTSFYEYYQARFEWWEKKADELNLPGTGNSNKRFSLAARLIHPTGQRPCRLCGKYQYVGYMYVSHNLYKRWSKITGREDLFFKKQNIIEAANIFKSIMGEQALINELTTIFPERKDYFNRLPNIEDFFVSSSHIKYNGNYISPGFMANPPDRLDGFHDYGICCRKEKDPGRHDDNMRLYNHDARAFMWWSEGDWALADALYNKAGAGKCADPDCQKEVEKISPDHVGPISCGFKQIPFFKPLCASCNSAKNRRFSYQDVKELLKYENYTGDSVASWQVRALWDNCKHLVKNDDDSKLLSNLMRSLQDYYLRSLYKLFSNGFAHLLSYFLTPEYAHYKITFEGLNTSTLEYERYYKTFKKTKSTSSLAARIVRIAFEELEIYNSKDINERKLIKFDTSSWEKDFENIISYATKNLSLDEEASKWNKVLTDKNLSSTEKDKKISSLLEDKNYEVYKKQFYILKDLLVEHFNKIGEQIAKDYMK

[2] = tested on: T2, SphI-HF K100A (Streptomyces phaeochromogenes); details: NEB4, 37 C, Mg2+
T2 sequence: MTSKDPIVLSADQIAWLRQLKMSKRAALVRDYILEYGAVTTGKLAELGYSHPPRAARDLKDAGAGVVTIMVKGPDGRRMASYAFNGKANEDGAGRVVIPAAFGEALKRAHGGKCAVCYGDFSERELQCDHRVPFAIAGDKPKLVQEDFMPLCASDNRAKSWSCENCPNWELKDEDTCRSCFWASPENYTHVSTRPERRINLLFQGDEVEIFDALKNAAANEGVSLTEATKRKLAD

[3] = tested on: T3, SspI-HF Y98F (Sphaerotilus species); details: NEB4, 37 C, Mg2+
T3 sequence: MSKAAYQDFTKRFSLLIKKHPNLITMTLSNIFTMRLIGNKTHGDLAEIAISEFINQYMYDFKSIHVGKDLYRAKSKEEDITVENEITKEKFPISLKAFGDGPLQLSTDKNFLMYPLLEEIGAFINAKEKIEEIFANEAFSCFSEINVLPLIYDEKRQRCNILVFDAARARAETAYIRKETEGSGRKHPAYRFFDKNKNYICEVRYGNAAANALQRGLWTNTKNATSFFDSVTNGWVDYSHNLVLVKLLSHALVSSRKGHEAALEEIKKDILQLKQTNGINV

With lambda DNA the activity (fidelity index) [1] was > 500, the activity (fidelity index) [2] was 8000 and the activity (fidelity index) [3] was 500.
